Patent publication US20090214534A1

What was measured:
[1] = target: human serum albumin (human) (UniProt P02768); experiment: sandwich ELISA, HSA-coated plate, control antibody at 1 µM, anti-FITC detection
[2] = target: interleukin-1 type 1 receptor (UniProt P14778); experiment: cell-based or functional assay
Sequence of UniProt P14778 (P14778 18-569 limits assumed): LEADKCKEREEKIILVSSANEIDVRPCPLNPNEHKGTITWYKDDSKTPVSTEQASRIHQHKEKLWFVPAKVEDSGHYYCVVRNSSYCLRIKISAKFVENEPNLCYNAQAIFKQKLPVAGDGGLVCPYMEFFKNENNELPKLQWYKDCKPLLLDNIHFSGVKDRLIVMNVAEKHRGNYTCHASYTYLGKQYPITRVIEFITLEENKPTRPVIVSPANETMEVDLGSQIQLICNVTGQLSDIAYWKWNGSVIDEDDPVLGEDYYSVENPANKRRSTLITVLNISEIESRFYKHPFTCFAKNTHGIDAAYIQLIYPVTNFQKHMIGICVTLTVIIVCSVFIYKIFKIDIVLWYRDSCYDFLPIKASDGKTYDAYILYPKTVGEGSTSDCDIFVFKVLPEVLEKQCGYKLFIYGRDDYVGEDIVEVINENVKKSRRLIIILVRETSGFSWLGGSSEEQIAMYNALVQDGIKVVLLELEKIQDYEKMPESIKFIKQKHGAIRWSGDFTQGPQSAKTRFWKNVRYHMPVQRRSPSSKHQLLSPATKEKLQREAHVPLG

OD600 [1] | ND50 (neutralizing dose 50) of IL-1-induced IL-8 secretion by MRC-5 cells [2] | Substance
0.049 OD600 |  | FITC coupled antibody (negative control)
 | 0.5 nM | recombinant human IL-1ra (from UniProt P18510 26-177) (ligand)
